The values that follow come from the supplement of paper PMC12636428.

A value given as a limit tells only on which side of the number the result lay.

The series deals with Saccharomyces cerevisiae. Kind of series: transcriptional activation domain activity (GFP:mCherry ratio, weighted mean of sorted bins, harmonized to initial dataset scale) (arbitrary fluorescence ratio units); higher = stronger transcriptional activation. The settings on record: beta-estradiol 1 µM; induction time 4 h. Here is the method:
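53-aa protein tiles (fungal proteins plus yeast TF control tiles) fused C-terminally to a DBD-estrogen-binding domain-mCherry synthetic TF, integrated in S. cerevisiae (URA3 locus) with a GFP reporter. Cells were induced with 1 uM beta-estradiol for 4 h at 30 C, FACS-sorted into 8 bins by GFP:mCherry ratio and barcodes sequenced. Activity is the read-weighted mean bin fluorescence (GFP:mCherry), averaged over barcodes (median 12); tiles under 50 reads were discarded. New active-learning values were harmonized by linear fit onto the scale of the initial (Hummel et al.) dataset. The assay saturates at low and high signal.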
Consider “HFPKRSFRHWVGLMFFSFLTCCTLLLQFRAAVTLTVNSHLPWITRSGLWYLVL”, for which the “transcriptional activation domain activity” value is 68800.
As for “FYMQLCVNIFLASGFIYILYCAWGAIISDVDIEASKHMSEVLVDIALCAKQYN”, the “transcriptional activation domain activity” value was determined as 22900.
“MSLSEWLRMIWVCFGRSTSCTIVRFSFHMRLIHVLIVVVLGTVRRHWLWSFVY”: the “transcriptional activation domain activity” value came to 35500.
Turning to “GGAAPAAAPADNRPPEERYAEQLRQLNDMGFFDFDRNVAALRRSGGSVQGAIE”, the “transcriptional activation domain activity” value is 44000.
The same measure for “IWCRKCNLGSILYVLARYGTLNCLLVSSLSLVTGFVVNMIFHIILGLLLARAY”: 65100; for “VTQLIRDARRLLTCVRTGFVFYLGTCMALTCLQMISFCTVLPPILTGYQILWV”: 63000; for “RHHPEIINALVTLIATASTTHVKYTFQGILDHYSYYVLVDGFTLKQLTWMQGI”: 62700.
The same measure for “TMSMLCLEGFIIIYLLRETTLSFLDIIRCFSSMDPVALKLFVRCFLYTLVMCG”: 77500; for “RLETLHKCIVTYLWLSYRFANLVGSRKVATYAKEITENVIEKTLMEFTWTRWA”: 52000; for “SDYGLHLRHVLLLSPTIFPIIFAALMGRCFRSIGLYRAERGISLIRLEQLIGC”: 55900.
As to “NGFLLQVVRWNTRPHKEVVQLLTKYFTGAKHQRLLSENIGLIAEWTDRICQLG”, the “transcriptional activation domain activity” value is 58900.
On to “MSSSLPSESPCQEPTKRRRKVKTGCRTCKIRRVKCDEGRPACHRCVSTGRVCD”, for which the “transcriptional activation domain activity” value was 54000.
The value for “IYVELYFILSSIWFSRIYYMFGFLFLCYGLMIMTCATVTILMVYFLLCAENYN” was 58300.
Consider “MMDCGRRTSFQAFIFLSLFLVHQVSFCCVYLICFFFFLFFLSFLYSFPFPFFF”, for which the “transcriptional activation domain activity” value was found to be 26400.
In the case of “QHLRSDPQMRLWLVMFLFLTFMVHTILSATLSIIFVSITYSLFWLPQIVRSAR”, the “transcriptional activation domain activity” value came out at 30800.
As for “MITRRTGGNSGNWVPSIRVQEGVLTKGFRPINMRSELVRLHEVVILVVGMEMD”, the “transcriptional activation domain activity” value was found to be 47100.
The same measure for “QIDQNGDPLAKYVRNKVRTTKYTIISILPKDLFEQFRNVIFFLVLVIFQNFPF”: 56900.
Turning to “SHDTFPLRPILVKLLCHAMLMKGVDPVSIIEKQPMTYGFVADILLPLVLDLPS”, the “transcriptional activation domain activity” value was 62200.
On to “RKPESNEKTEGANGEGHDGTRRRQSTRGRGRAGRGRGGRARGERGEKKEEGAE”, for which the “transcriptional activation domain activity” value worked out at 14100.
The same measure for “RMIGLPILLWLGTLTCQIGLLVLLRSVVFGQTNSGNVLPWGLGFWALTISTNI”: 71800; for “FFLRIAVEVLHIRIIWAIILVNVLFGFSYFMCAVLQCVPIPYIWKKYAANPPP”: 43200; for “MLAMISFFMYPPPLLFFFALWLSFSLFSIHKPPWLLFQNVHFYVLFLFFSFLA”: 36300.
The same measure for “MVRSGILKCELLQNLSTVYPTIYLVLCCYSIVFFFNACLSFLVLFMHFAFLVK”: 52800; for “MVLLSVLCVLICNYFCLLVFTVAMGMPSGPPVRPLFQVILAHRRYLFSFRTHW”: 82500; for “MLFFFSGLLFFLSLLSLVFLFALFFIRISTPTIRFRLWFFLLLLLLFSLFLLF”: 45500.
The same measure for “LGTTLLIVVKMLLNWETIDCWGLIYKKMVIGQFMSEMYRIAAGGGKRRVPWAK”: 60800.
In the case of “MLLLGYILYLFYYGRYLYGILAFYCFSLLYVTLLPFIFVSARLFLHFTQIGIR”, the “transcriptional activation domain activity” value is 53600.
Take “GMCVCTYRLHRCSHVKSRGRRFLCLHVLLCDVMMGPLTEWWCPLLRMMVKVYL”: the “transcriptional activation domain activity” value was found to be 47800.
Regarding “GYCLKIRDRFFIFLWHCWVRGIVVTPFGSKIISGLSFESIPQSSCVLIQNVTI”, the “transcriptional activation domain activity” value is 28400.
The value for “MSEEEGPAKSTSNKKRRLQGACDECRKRKVKCDSANMPGNQCSNCNVSHIECT” was 42300; that for “EADGERRSNGGSAGPRAGRRGGRDRDDRKGKPSKDSKARGEKSSEEKIGSNKE” was 47500.
“NWNKYNWLIIAILSNFTSWFFHVWHHKLYSAFHDTSRIKNWNLFKTIQFWLFI”: the “transcriptional activation domain activity” value was 45300.
The value for “TETELYIPEFKLDPVNGYWFPHFVKYIIVALMMGLYILIVFWTLMIFKVVYKL” was 43100; that for “FEHKELKLCPYFNFTFCVYFRLSNPFAKQYHITPTCFCGQNVTINRTYREGKN” was 62800.
Consider “RSPRRQTQSSSTTPPARKTPTQTTKTHRTTSPTTRSSCRRASGRQTAPTHSSC”, for which the “transcriptional activation domain activity” value came to 43100.
Consider “KMSTNANNYTGAGNLHAAKPATSPTNVGTLHENLSSSHFMIPDVDQFNSFEDF”, for which the “transcriptional activation domain activity” value stood at 30300.
The value for “MLHPTIVYPFITHLLLLILLFSLLPRFSYDADMDFLLVFSSFVLLLCFPWFED” was 40400; that for “EEGGKEKEMREVERLSADERKLWGEALRLGRTGYSESAMIWVHVLALRVFVET” was 37700; that for “DEPTTDEKKVEETAVAVANLSVEGKKDEKKEEATLSDDKKTEAATEAVAAAPV” was 10100.
On to “EWMKVVYGFDQKPIPSGACSGSIAKIFGTNTSAFELLVLKRRIMGPCWIQIKK”, for which the “transcriptional activation domain activity” value came out at 55800.
The value for “RRRWINSTVHNLCELIILPELFGFCCFSMRFFVFLDLLGTLILPATVVYLVYL” was 51600.
The same measure for “MSENTAIENVTVTLEKTKLDAPVTNEAEVAHAASAAEGRRLYIGNLAYSTTEE”: 16900; for “GRWSYLRTSEMILTFFYKNIMWTLVLFWYQLMCGFTGTMMFDYSYITLYNLVF”: 46300.
The same measure for “RLHCHVVCPLSHSLLTQVYLFLFFFLSNLLITSLSLPVHFFPFILCLCCIAHF”: 58000.
For “NPSSAPAQTATTAASGTPSLFGSKPAQATGAPSSLFGGQPAAASTGASTQATP”, the “transcriptional activation domain activity” value was 24200.
The same measure for “DDAVVESFFSSSTDSTPMFEYENLEDNSKEWTSLFDNDIPVTTDDVSLADKAI”: 114000; for “AAATAEGAASSRQPSERERKREREREEERERGKEREREKERKQAAEASTSANE”: 58800; for “SSRKEDKSERRHRHRHRSRSRDRDQRHRRHHRSDSRERNQDGDGERRRRHRRS”: 26700.
As to “YDKKTNVLGFDDGTFDNKVFNRTNFEEKAPFDIPLDEFFTELEKHSNVSQFNT”, the “transcriptional activation domain activity” value stood at 112000.
For “QVLVLLLILLVFLVFQFLQMLSFLLKLPFVLKLEILLVLLVTKLWVFLFHLLL”, the “transcriptional activation domain activity” value turned out to be 41500.
The value for “EMGLSTAPGHQTAEFTITGIGLILKTLWLCADLITFLLSLQRLIFHALVLLFS” was 64300; that for “ESSLSDKAEPKKEDSGKMAEAPKPAPEPKKEPKKEESKPAAKQESKKEVEEKA” was 35200; that for “LGSIWKPLRNDLLFGTCFFLTRILYHNIMIFTFYYHLDFMFPVYTLLFILPLH” was 61100.
The value for “GFAKDTQDEEYVQHHDNVNPTIPPPDNYILNNENDDGLDNLLGMDYYNIDDLL” was 101000; that for “DLIQTKQLQNALLTHPRRNTLTGLQFTMQNVLDLLKYILTMILYRPSQFRWAA” was 82500.
Take “MYILDKIKGEKGKQEGGEREAERGRGGAGRGEQEQEGGAGAGRGSRSKKGEQG”: the “transcriptional activation domain activity” value is 30700.
The same measure for “MSSEKSSRASKTPTPTPAPPGDHRKRRRNRTTQSCLNCHASKRMCDRKRPACQ”: 52300.
“LQLEMMEGIEDLDLEFDRMLDDFIIINFFIGNDFLPELPMLMVNDGAVPVILS”: the “transcriptional activation domain activity” value was 85100.
For the sequence “LFLMVAPYPSLLIVLVNHYLRTLDKPIAFVIHFLVIFTLKFLAFISLIVCVAR”, the “transcriptional activation domain activity” value was 75600.
As for “ATEKEVKPKKAAAPKKAAAPKEKKEKVEKAEKAPKPKANAAKKVKKTASAPAV”, the “transcriptional activation domain activity” value came out at 20200.
Turning to “PKRKRAAPKKKDAEDNTEEKPKRGRKKKEENGDAEEKPKKAPVRKARATKKVE”, the “transcriptional activation domain activity” value is less than 6570.
The same measure for “LDSYPNVLTFAVYTYLRLIPEHRHIQLATLQQREIRFVVSMLRQKWNLCAVIG”: 30100.
For the sequence “ARYIVKYKNGLIGKHFKILQHLGIFHLHNDLCGDNLFNLWKAAGGLGALLWFP”, the “transcriptional activation domain activity” value was determined as 57600.
Take “IDGVWFAYCHLSLFALLGEHISLNATNSEFPLVPSQSWKWDDFLFSISFLETL”: the “transcriptional activation domain activity” value came to 71300.
The value for “RNGKRTRNARKLRKPRRSRRRGEEKKKPNASALKRQRRREKKQEEELRRKQKR” was 47800; that for “MPRLCCSCCYTDSLYFMIIRDRFFWLLHNGIVVVSLISYIRCMMISSPLLVGH” was 48400.
“AAPAAAAAQAAAPVSPAVKAETPVEAPKTIPAAAAPAPAPAKTEAAPAAEPVA”: the “transcriptional activation domain activity” value came to 27500.
The value for “MLVRLFFCCYCCCLPVCLSVCLLHVVRCVMLLLTLMLFALLLRTCATLFFLFF” was 61400; that for “MQNKIVQALNWVCVDLNPPLTSFYFSPFFSFFPTLSSCFNTPLFFFLFSSFFF” was 61800.
For the sequence “MGSDPFGGLNLFSTALFPLYLYCLTLDPPNYSNWLIFLSQHFLFSGLFRVLCF”, the “transcriptional activation domain activity” value turned out to be 56600.
The same measure for “SNARGSDPSSYAIEGEYKTLATDDLGNILNLNYGETNEVIMNEINDLNLPLGP”: 112000.
